{"source": "patent US10117916B2", "about": "“Peptides and combination of peptides for use in immunotherapy against CLL and other cancers” (immatics biotechnologies GmbH, priority 2015, dated 2018)", "data": [{"target": "HLA-A*02:01 (Homo sapiens, UniProt P04439, D140Y/D185E/D98H/E176V/E277Q/G131W/G231S/I119V/I121R/I166T/I218V/L300P/L318F/N151K/N90K/P208A/P217A/Q86G/Q94H/R138H/R169H/T345S)", "experiment": "MHC binding assay: UV-ligand exchange with β2m ELISA (peptide exchange yield)", "conditions": "MHC class I binding score; binding to HLA-A*02:01 ranged by peptide exchange yield (UV-ligand exchange, β2m ELISA)", "how_it_was_run": "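Exchange yield is an ELISA read-out: complexes diluted 100-fold, captured on streptavidin plates, detected with HRP anti-β2m and TMB at 450 nm. Standard curve from refolded HLA-A*02:01/MLA-001 (15-500 ng/ml); complexes made by UV-triggered displacement of a photolabile ligand by test peptide.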", "values": [{"substance": "141 (QILSEIVEA; listed as Homo sapiens) [compound 141]", "Peptide Exchange": "″++″ (≥20% = ++)"}, {"substance": "146 (SIIEGPIIKL; listed as Homo sapiens) [compound 146]", "Peptide Exchange": "″+++″ (≥50 = +++)"}, {"substance": "337 (YMYEKESEL; listed as Homo sapiens) [compound 337]", "Peptide Exchange": "″++″ (≥20% = ++)"}, {"substance": "302 (ILQDLTFVHL; listed as Homo sapiens) [compound 302]", "Peptide Exchange": "″+++″ (≥50 = +++)"}, {"substance": "313 (LMADLEGLHL; listed as Homo sapiens) [compound 313]", "Peptide Exchange": "″+++″ (≥50 = +++)"}, {"substance": "270 (TVLPVPPLSV; listed as Homo sapiens) [compound 270]", "Peptide Exchange": "″+++″ (≥50 = +++)"}, {"substance": "384 (YMIGSEVGNYL; listed as Homo sapiens) [compound 384]", "Peptide Exchange": "″++++″ (≥75% = ++++)"}, {"substance": "364 (KMDWIFHTI; listed as Homo sapiens) [compound 364]", "Peptide Exchange": "″+++″ (≥50 = +++)"}, {"substance": "168 (YLLDQSFVM; listed as Homo sapiens) [compound 168]", "Peptide Exchange": "″++++″ (≥75% = ++++)"}, {"substance": "24 (AMAGDVVYA; listed as Homo sapiens) [compound 24]", "Peptide Exchange": "″+++″ (≥50 = +++)"}, {"substance": "157 (SLNIRDFTM; listed as Homo sapiens) [compound 157]", "Peptide Exchange": "″+++″ (≥50 = +++)"}, {"substance": "48 (FLSPQQPPLL; listed as Homo sapiens) [compound 48]", "Peptide Exchange": "″+++″ (≥50 = +++)"}, {"substance": "233 (GIIDINVRL; listed as Homo sapiens) [compound 233]", "Peptide Exchange": "″++″ (≥20% = ++)"}, {"substance": "82 (GLQSGVDIGV; listed as Homo sapiens) [compound 82]", "Peptide Exchange": "″+++″ (≥50 = +++)"}, {"substance": "123 (LLLAEAELLTL; listed as Homo sapiens) [compound 123]", "Peptide Exchange": "″++″ (≥20% = ++)"}, {"substance": "208 (ILLKTEGINL; listed as Homo sapiens) [compound 208]", "Peptide Exchange": "″+++″ (≥50 = +++)"}, {"substance": "21 (ALWAGLLTL; listed as Homo sapiens) [compound 21]", "Peptide Exchange": "″+++″ (≥50 = +++)"}, {"substance": "110 (LLFDHLEPMEL; listed as Homo sapiens) [compound 110]", "Peptide Exchange": "″+++″ (≥50 = +++)"}, {"substance": "221 (ALVSTIIMV; listed as Homo sapiens) [compound 221]", "Peptide Exchange": "″+″ (≥10% = +)"}, {"substance": "317 (NLLAHIWAL; listed as Homo sapiens) [compound 317]", "Peptide Exchange": "″+++″ (≥50 = +++)"}, {"substance": "198 (YLTFLPAEV; listed as Homo sapiens) [compound 198]", "Peptide Exchange": "″+++″ (≥50 = +++)"}, {"substance": "249 (LLPTGVFQV; listed as Homo sapiens) [compound 249]", "Peptide Exchange": "″+++″ (≥50 = +++)"}, {"substance": "325 (TLENGVPCV; listed as Homo sapiens) [compound 325]", "Peptide Exchange": "″+++″ (≥50 = +++)"}, {"substance": "381 (YLLEENKIKL; listed as Homo sapiens) [compound 381]", "Peptide Exchange": "″+++″ (≥50 = +++)"}, {"substance": "339 (GLWGTVVNI; listed as Homo sapiens) [compound 339]", "Peptide Exchange": "″+++″ (≥50 = +++)"}, {"substance": "382 (YLLPLLQRL; listed as Homo sapiens) [compound 382]", "Peptide Exchange": "″++++″ (≥75% = ++++)"}, {"substance": "271 (VIRNIVEAA; listed as Homo sapiens) [compound 271]", "Peptide Exchange": "″++″ (≥20% = ++)"}, {"substance": "66 (SLAGGLDDMKA; listed as Homo sapiens) [compound 66]", "Peptide Exchange": "″+++″ (≥50 = +++)"}, {"substance": "349 (ALATHILSL; listed as Homo sapiens) [compound 349]", "Peptide Exchange": "″+++″ (≥50 = +++)"}, {"substance": "241 (ILGDILLKV; listed as Homo sapiens) [compound 241]", "Peptide Exchange": "″+++″ (≥50 = +++)"}, {"substance": "273 (VLGEYSYLL; listed as Homo sapiens) [compound 273]", "Peptide Exchange": "″+++″ (≥50 = +++)"}, {"substance": "122 (LLIPVVPGV; listed as Homo sapiens) [compound 122]", "Peptide Exchange": "″+++″ (≥50 = +++)"}, {"substance": "239 (ILAGEMLSV; listed as Homo sapiens) [compound 239]", "Peptide Exchange": "″+++″ (≥50 = +++)"}, {"substance": "369 (RLLDLENSLLGL; listed as Homo sapiens) [compound 369]", "Peptide Exchange": "″+++″ (≥50 = +++)"}, {"substance": "162 (SMKDDLENV; listed as Homo sapiens) [compound 162]", "Peptide Exchange": "″++″ (≥20% = ++)"}, {"substance": "79 (GLQAKIQEA; listed as Homo sapiens) [compound 79]", "Peptide Exchange": "″+++″ (≥50 = +++)"}, {"substance": "50 (FLFEPVVKAFL; listed as Homo sapiens) [compound 50]", "Peptide Exchange": "″+++″ (≥50 = +++)"}, {"substance": "321 (RLLEFELAQL; listed as Homo sapiens) [compound 321]", "Peptide Exchange": "″+++″ (≥50 = +++)"}, {"substance": "18 (LLGEFSIKM; listed as Homo sapiens) [compound 18]", "Peptide Exchange": "″+++″ (≥50 = +++)"}, {"substance": "98 (SLIKYFLFV; listed as Homo sapiens) [compound 98]", "Peptide Exchange": "″+″ (≥10% = +)"}, {"substance": "274 (VLLEYHIAYL; listed as Homo sapiens) [compound 274]", "Peptide Exchange": "″+++″ (≥50 = +++)"}, {"substance": "336 (YMAVTTQEV; listed as Homo sapiens) [compound 336]", "Peptide Exchange": "″++++″ (≥75% = ++++)"}, {"substance": "165 (TLDDDLDTV; listed as Homo sapiens) [compound 165]", "Peptide Exchange": "″++″ (≥20% = ++)"}, {"substance": "140 (QIAELPATSV; listed as Homo sapiens) [compound 140]", "Peptide Exchange": "″+++″ (≥50 = +++)"}, {"substance": "14 (ALLRLLPGL; listed as Homo sapiens) [compound 14]", "Peptide Exchange": "″+++″ (≥50 = +++)"}, {"substance": "105 (KLMNDIADI; listed as Homo sapiens) [compound 105]", "Peptide Exchange": "″++″ (≥20% = ++)"}, {"substance": "238 (GLVETELQL; listed as Homo sapiens) [compound 238]", "Peptide Exchange": "″+++″ (≥50 = +++)"}, {"substance": "143 (QLLDTYFTL; listed as Homo sapiens) [compound 143]", "Peptide Exchange": "″+++″ (≥50 = +++)"}, {"substance": "267 (TLLDWQDSL; listed as Homo sapiens) [compound 267]", "Peptide Exchange": "″+++″ (≥50 = +++)"}, {"substance": "63 (SLAHVAGCEL; listed as Homo sapiens) [compound 63]", "Peptide Exchange": "″+++″ (≥50 = +++)"}, {"substance": "361 (ILQEFESKL; listed as Homo sapiens) [compound 361]", "Peptide Exchange": "″+++″ (≥50 = +++)"}, {"substance": "331 (VLWELAHLPTL; listed as Homo sapiens) [compound 331]", "Peptide Exchange": "″+++″ (≥50 = +++)"}, {"substance": "377 (VVDGTCVAV; listed as Homo sapiens) [compound 377]", "Peptide Exchange": "″+++″ (≥50 = +++)"}]}]}
